Laboratory results as given in US20210324075A1 (ARCH ONCOLOGY, published 2021).
Where a chain is given by its changes, count along the chain named. Names may count otherwise.

T1: mouse CD47 (mouse, UniProt Q61735 19-303)
T1 construct: whole, on cells; also called CD47 on murine RBCs (mRBCs)
T1 sequence (looked up): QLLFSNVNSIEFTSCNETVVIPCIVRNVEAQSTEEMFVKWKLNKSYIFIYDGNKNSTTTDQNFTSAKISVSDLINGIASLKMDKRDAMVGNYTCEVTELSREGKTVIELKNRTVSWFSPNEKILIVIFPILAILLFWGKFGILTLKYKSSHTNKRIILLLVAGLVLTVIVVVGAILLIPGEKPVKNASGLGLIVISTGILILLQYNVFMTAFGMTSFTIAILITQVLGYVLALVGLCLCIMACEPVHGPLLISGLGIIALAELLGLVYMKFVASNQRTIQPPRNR

T2: rat CD47 (rat, UniProt P97829 19-303)
T2 construct: whole, on cells; also called CD47 on rat RBCs
T2 sequence (looked up): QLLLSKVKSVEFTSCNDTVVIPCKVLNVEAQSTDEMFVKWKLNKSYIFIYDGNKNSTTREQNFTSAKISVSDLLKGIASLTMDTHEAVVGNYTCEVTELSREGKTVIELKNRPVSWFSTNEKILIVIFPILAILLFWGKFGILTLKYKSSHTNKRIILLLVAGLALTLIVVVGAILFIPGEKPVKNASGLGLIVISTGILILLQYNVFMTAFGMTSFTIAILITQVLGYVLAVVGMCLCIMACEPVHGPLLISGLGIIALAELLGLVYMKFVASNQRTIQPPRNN

T3: pig CD47 (pig, UniProt Q9GKE8 19-303)
T3 construct: whole, on cells; also called CD47 on pig RBCs
T3 sequence (looked up): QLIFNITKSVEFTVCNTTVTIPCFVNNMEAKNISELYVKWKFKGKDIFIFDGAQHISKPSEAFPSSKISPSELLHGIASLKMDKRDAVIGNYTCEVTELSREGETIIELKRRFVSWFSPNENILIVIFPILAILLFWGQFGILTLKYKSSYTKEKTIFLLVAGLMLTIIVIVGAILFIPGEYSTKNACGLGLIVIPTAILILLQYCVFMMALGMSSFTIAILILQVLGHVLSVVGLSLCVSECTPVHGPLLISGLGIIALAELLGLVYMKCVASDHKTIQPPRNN

B1: Vx10 (antibody, V domains shown)
VH: QVQLQQSGAELAKPGASVKMSCKASGYTFTNYWIHWIKQRPGQGLEWIGYIDPNTVYTDYNQRFEDKATLTADKSSNTAYMQLNSLTSEDSAVYYCSRGGKRGVDSWGQGTSVTVSS
VL: DVVMTQTPLSLPVSLGDQASISCRSSQSLENSNGDTYLNWYLQKPGQSPQLLIYRVSNRFSGVLDRFSGSGSGTDFTLQISRVEAEDLGVYFCLQVSHVPWTFGGGTNLEIK
notes: Murine mAb; also called murine anti-CD47 mAb Vx10
B2: Vx11 (antibody, V domains shown)
VH: EVQLQQSGAQLVKPGTSMKLSCKASGYTFTNYFLYWVKQRPGQGLEWIGDINPNAGSTNLNERFKSKATLTVDKSSSTAYLQLSGLTSEDSAVYYCTRGGYTMDYWGQGTSVTVSS
VL: B1 VL
notes: Murine mAb; also called murine anti-CD47 mAb Vx11
B3: Vx12 (antibody, V domains shown)
VH: B2 VH with E1Q, Q5L
VL: DVVMTQIPLSLPVSLGDQASISCRSSQSLVHSNGNTYLHWYLQKPGQSPKLLIYKVSNRFSGVPDRFSGSGSGTDFTLKISRVEAEDLGVYFCSQSTHVPRTFGGGTKLEIK
notes: Murine mAb; also called murine anti-CD47 mAb Vx12
B4: Vx10_mh_IgG1N297Q (antibody)
heavy: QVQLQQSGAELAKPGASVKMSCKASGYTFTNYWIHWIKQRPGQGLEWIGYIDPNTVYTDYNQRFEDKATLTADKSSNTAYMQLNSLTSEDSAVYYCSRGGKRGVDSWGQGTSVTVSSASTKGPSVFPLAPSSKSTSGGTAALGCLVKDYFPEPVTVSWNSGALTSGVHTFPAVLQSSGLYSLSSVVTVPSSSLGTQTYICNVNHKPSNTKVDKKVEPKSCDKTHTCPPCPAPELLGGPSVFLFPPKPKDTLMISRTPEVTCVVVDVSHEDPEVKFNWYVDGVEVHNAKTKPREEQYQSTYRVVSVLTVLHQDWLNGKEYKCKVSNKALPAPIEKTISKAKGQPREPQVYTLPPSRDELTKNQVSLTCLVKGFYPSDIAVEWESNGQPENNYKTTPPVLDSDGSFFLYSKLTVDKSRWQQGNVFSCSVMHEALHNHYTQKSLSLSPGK
light: DVVMTQTPLSLPVSLGDQASISCRSSQSLENSNGDTYLNWYLQKPGQSPQLLIYRVSNRFSGVLDRFSGSGSGTDFTLQISRVEAEDLGVYFCLQVSHVPWTFGGGTNLEIKRTVAAPSVFIFPPSDEQLKSGTASVVCLLNNFYPREAKVQWKVDNALQSGNSQESVTEQDSKDSTYSLSSTLTLSKADYEKHKVYACEVTHQGLSSPVTKSFNRGEC
notes: Mouse-human chimeric full length IgG, human IgG1-N297Q and human kappa, made in CHO cells; also called chimeric Vx10 IgG1 N297Q
B5: Vx10_mh_IgG4PE (antibody)
heavy: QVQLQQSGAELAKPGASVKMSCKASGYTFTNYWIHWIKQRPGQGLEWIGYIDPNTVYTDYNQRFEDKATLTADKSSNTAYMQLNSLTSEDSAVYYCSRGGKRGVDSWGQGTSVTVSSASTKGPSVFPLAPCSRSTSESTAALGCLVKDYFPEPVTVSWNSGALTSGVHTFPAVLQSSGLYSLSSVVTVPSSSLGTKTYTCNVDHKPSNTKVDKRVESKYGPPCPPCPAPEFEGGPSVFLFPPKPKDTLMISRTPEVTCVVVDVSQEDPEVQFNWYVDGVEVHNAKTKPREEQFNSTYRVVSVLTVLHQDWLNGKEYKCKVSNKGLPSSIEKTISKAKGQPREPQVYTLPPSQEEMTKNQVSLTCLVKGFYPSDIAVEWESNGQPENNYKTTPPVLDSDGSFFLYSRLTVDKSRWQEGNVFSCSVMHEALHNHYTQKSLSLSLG
light: B4 light
notes: Mouse-human chimeric full length IgG, human IgG4 PE and human kappa, made in CHO cells; also called chimeric Vx10 IgG4PE
B6: Vx12_mh_IgG1N297Q (antibody)
heavy: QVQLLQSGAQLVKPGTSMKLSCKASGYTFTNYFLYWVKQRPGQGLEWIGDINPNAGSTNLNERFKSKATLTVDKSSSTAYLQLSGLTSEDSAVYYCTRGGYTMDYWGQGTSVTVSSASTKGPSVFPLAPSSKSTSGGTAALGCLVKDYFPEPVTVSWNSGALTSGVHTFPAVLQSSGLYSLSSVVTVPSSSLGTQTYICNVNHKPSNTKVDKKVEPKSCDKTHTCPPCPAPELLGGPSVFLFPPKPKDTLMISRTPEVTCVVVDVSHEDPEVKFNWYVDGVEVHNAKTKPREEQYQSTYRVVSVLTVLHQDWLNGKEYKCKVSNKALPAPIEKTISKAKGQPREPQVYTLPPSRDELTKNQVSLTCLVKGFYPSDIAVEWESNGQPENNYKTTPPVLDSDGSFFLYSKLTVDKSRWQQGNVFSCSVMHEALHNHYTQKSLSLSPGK
light: DVVMTQIPLSLPVSLGDQASISCRSSQSLVHSNGNTYLHWYLQKPGQSPKLLIYKVSNRFSGVPDRFSGSGSGTDFTLKISRVEAEDLGVYFCSQSTHVPRTFGGGTKLEIKRTVAAPSVFIFPPSDEQLKSGTASVVCLLNNFYPREAKVQWKVDNALQSGNSQESVTEQDSKDSTYSLSSTLTLSKADYEKHKVYACEVTHQGLSSPVTKSFNRGEC
notes: Mouse-human chimeric full length IgG, human IgG1-N297Q and human kappa, made in CHO cells; also called chimeric Vx12 IgG1 N297Q
B7: Vx12_mh_IgG4PE (antibody)
heavy: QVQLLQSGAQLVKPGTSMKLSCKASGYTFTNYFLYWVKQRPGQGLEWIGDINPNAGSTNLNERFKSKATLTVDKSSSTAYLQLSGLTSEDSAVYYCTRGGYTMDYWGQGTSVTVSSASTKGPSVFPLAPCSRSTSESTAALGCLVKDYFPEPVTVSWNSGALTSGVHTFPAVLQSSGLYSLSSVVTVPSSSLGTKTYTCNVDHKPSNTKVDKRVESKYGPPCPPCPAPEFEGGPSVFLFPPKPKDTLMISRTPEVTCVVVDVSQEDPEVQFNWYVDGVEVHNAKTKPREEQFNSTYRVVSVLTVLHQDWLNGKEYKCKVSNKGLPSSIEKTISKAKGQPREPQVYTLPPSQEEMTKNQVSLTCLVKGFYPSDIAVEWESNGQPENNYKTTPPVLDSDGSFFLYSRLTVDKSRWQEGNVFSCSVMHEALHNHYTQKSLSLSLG
light: B6 light
notes: Mouse-human chimeric full length IgG, human IgG4 PE and human kappa, made in CHO cells; also called chimeric Vx12 IgG4PE
B8: Vx13 (antibody, V domains shown)
VH: EVQLQQSGPEVVKPGASVRISCKASDYTFTNYYIHWVRQRPGQGLEWIGWIYPGNNNNKYNEKFKGKATLTEDTSSSTAYMQLSSLTSEDSAVYFCARGGYTMDYWGQG
VL: DVLMTQTPLSLPVSLGDQASISCRSSQSLVHSNGNTYLHWYLQKPGQSPNLLIYKVSNRFSGVPDRFSGSGSGTDFTLKINRVETEDLGIYFCSQSTHVLTFGAG
notes: Murine mAb; also called murine anti-CD47 mAb Vx13
B9: humVx10_01_IgG4PE (antibody, V domains shown)
VH: QVQLVQSGAEVKKPGASVQVSCKASGYTFTNYWIHWLRQAPGQGLEWMGYIDPNTVYTDYNQRFEDRVTMTSDTSISTAYMELSSLRSDDTAVYYCARGGKRGVDSWGQATLVTVSS
VL: DIVMTQSPLSLPVTPGEPASISCRSSQSLENSNGDTYLNWYLQKPGQSPRLLIYRVSNRFSGVPDRFSGSGSGTDFTLKISRVEADDVGIYYCLQVSHVPWTFGQGTKLEIKR
notes: Humanized full length IgG4 PE, human kappa

What follows are binders tested against T1, mouse CD47 (assay: flow cytometry on mouse RBCs, apparent affinity by non-linear fit of median fluorescence).
Procedure: (§1) Binding activities of murine mAbs to mouse CD47 on murine RBCs (mRBCs) and human CD47 on human RBCs (hRBCs) were determined using flow cytometry. RBCs were incubated for 60 min on at 37° C. with various concentrations of the chimeric or humanized antibodies in a solution of phosphate buffered saline, pH 7.2, 2.5 mM EDT A (PBS+E). Cells were then washed with cold PBS+E and incubated for an additional hour on ice with a FITC labeled goat-anti-mouse antibody (Jackson Immuno Research Labs, West Grove, Pa.) in PBS +E. Cells were washed with PBS+E, antibody binding analyzed using a C6 Accuri How Cytometer (Becton Dickinson) and apparent binding affinities determined by non-linear fit (Prism GraphPad software) of the median fluorescence intensities at the various antibody concentrations.

Kd [nM]	Binder
0.031	B1
0.246	B2
< 0.013	B3

The binders below were run against T4, human CD47 (human, UniProt Q08722 19-292) (assay: flow cytometry on human RBCs, apparent affinity).
T4 construct: On human RBCs, on OV10 cells transfected with human CD47 (OV10-hCD47) and on Jurkat T cells; also called hCD47; integrin-associated protein (IAP)
T4 sequence (Q08722 other isoform, or with tags, fused parts or gaps limits assumed): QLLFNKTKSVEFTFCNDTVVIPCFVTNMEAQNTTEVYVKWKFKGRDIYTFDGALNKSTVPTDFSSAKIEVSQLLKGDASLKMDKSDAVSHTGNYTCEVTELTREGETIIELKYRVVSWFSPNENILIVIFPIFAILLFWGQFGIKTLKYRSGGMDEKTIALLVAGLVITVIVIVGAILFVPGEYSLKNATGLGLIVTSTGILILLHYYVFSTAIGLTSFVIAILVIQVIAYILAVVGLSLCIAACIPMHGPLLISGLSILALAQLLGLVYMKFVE
Procedure: as §1, with “humanized” for “murine”, “to” for “to mouse CD47 on murine RBCs (mRBCs) and”, “RBCs” for “RBCs (hRBCs)”, “donkey-anti-human” for “goat-anti-mouse”, “PBS+E.” for “PBS +E.”, “Flow” for “How”

Kd [nM]	Binder
0.04	B4
0.048	B5
0.09	B6
0.12	B7

Each binder was assayed against T4, human CD47 (assay: flow cytometry on human RBCs, apparent affinity by non-linear fit of median fluorescence).
Procedure: as §1

Kd [nM]	Binder
0.459	B1
0.091	B2
0.384	B3
0.874	B8

What follows are binders tested against T2, rat CD47 (assay: flow cytometry on rat RBCs, apparent affinity by non-linear fit of median fluorescence).

Kd [nM]	Binder
0.179	B1
0.231	B2

What follows are binders tested against T3, pig CD47 (assay: flow cytometry on pig RBCs, apparent affinity by non-linear fit of median fluorescence).

Kd [nM]	Binder
0.123	B1
0.06	B3
0.102	B8

These binders were tested against T5, dog CD47 (dog) (assay: flow cytometry on dog RBCs, apparent affinity by non-linear fit of median fluorescence).
T5 construct: whole, on cells; also called CD47 on dog RBCs

Kd [nM]	Binder
0.714	B1
< 0.013	B2
0.101	B3
1.62	B8

Each binder was assayed against T4, human CD47 (assay: cell-based ELISA on OV10-hCD47 tumor cells, apparent affinity).
Procedure: Binding activities of humanized mAbs were determined using a cell-based ELISA assay with human OVIO-hCD47 cells expressing cell surface human CD47. OVIO hCD47 cells were grown in IMDM medium containing 10% heat inactivated fetal bovine serum (BioWest; S01520). One day before assay, 3×10⁴ cells were plated in 96 well cell bind plates (Corning #3300, VWR #66025-626) and were 95-100% confluent at the time of assay. Cells were washed, and various concentrations of purified antibodies added in IMDM 37° C. for 1 hr in 95%02 I 5% CO₂. Cells were then washed with media and incubated for an additional hour at 37° C. with HRP labeled secondary anti-human antibody (Promega) diluted 1/2500 in media. Cells were washed three times with PBS, and the peroxidase substrate 3,3′, 5,5′-tetramethylbenzidine is added (Sigma; Catalog #T4444). Reactions were terminated by the addition of HCl to 0.7N, and absorbance at 450 nm is determined using a Tecan model Infinite M200 plate reader. The apparent binding affinities of these clones to human OVIO-hCD47 cells was determined by non-linear fit (Prism GraphPad software).

Kd [nM]	Binder
0.087	B4
0.091	B5
0.069	B6
0.07	B7

What follows are binders tested against T4, human CD47 (assay: flow cytometry on human RBCs and cell-based ELISA on OV10-hCD47 cells).
Procedure: as §1, with “humanized” for “murine”, “to” for “to mouse CD47 on murine RBCs (mRBCs) and”, “RBCs” for “RBCs (hRBCs)”, “donkey-anti-human” for “goat-anti-mouse”, “PBS+E.” for “PBS +E.”, “Flow” for “How”
Binding activities of humanized mAbs were determined using a cell-based ELISA assay with human OVIO-hCD47 cells expressing cell surface human CD47. OVIO hCD47 cells were grown in IMDM medium containing 10% heat inactivated fetal bovine serum (BioWest; S01520). […] Reactions were terminated by the addition of HCl to 0.7N, and absorbance at 450 nm is determined using a Tecan model Infinite M200 plate reader. The apparent binding affinities of these clones to human OVIO-hCD47 cells was determined by non-linear fit (Prism GraphPad software).

binding result	Binder
binds	B9
